Measurements as given in patent US20220105163A1.

Assays:
[1] = target: Recombinant human IL-6 (human) (UniProt P05231); test: cell-based or functional assay
[2] = target: IL-6 receptor on TF-1 cells (human) (UniProt P08887); test: cell-based or functional assay
Sequence of IL-6 receptor on TF-1 cells (human) (P08887 20-468): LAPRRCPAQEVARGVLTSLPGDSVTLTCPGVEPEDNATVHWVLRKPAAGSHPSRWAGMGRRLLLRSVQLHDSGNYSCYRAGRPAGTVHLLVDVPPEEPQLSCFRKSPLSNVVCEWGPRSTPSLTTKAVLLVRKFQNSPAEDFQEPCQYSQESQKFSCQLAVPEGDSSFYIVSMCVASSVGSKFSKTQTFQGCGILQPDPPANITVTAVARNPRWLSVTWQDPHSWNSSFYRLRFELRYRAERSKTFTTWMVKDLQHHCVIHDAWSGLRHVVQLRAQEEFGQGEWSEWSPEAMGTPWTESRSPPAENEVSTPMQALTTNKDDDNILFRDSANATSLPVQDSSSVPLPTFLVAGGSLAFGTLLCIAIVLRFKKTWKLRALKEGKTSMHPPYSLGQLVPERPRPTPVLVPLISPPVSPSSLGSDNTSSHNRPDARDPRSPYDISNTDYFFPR

Sequence of Recombinant human IL-6 (human) (P05231 30-212 limits assumed): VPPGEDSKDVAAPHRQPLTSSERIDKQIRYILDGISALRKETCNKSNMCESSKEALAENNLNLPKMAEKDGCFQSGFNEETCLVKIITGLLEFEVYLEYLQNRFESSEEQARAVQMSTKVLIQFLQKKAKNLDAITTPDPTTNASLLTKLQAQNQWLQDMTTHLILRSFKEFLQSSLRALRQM

Substance | IC50 (µg/mL), IL-6 induced TF-1 proliferation [1] | IC50 (µg/mL), IL-6 induced TF-1 proliferation [2]
Non GP IgG (antibody) | > 100 µg/mL | –
Tocilizumab (antibody) | – | 0.365 µg/mL
